Source: publication PMC7004160

Legend:
[1] = biological target: superfolder GFP [GFP: P42212]; assay: MST; sfGFP as the fluorescent antigen, photobody added in a dilution series; before and after photodeprotection (365 nm)
[2] = biological target: superfolder GFP [GFP: P42212]; assay: not stated; photobody 10, caged or photodeprotected, with purified sfGFP

Kd [1] | Kd [2] | Substance
460 nM | – | anti-GFP NPY-photobody (construct 5), GFP-enhancer nanobody with Y37NPY, caged (VHH)
> 10000 nM | – | anti-GFP ONBY-photobody (construct 4), GFP-enhancer nanobody with Y37ONBY, caged (VHH)
– | 2280 nM | anti-GFP minimizer Y113ONBY-photobody (construct 10), caged (VHH)
